Experimental data taken from article PMC5009119, “Characterization of the Promoter Region of Biosynthetic Enzyme Genes Involved in Berberine Biosynthesis in Coptis japonica”.

Target: GST-CjWRKY1 (Coptis japonica, UniProt A0ZT25 1-185)
Experiment: EMSA; poly(dI-dC) 0.05 ug/ul; 3 ug protein, 20 fmol probe; EMSA: 1x LightShift binding buffer, 1 mM MgCl2, 0.5 mM EDTA, 0.05 ug/ul poly(dI-dC), 20 min at 4 C; pH not stated
Details: protein: recombinant; tags: GST (N-terminal, pGEX-6P-1); label: biotin (sense and antisense oligonucleotides)

Sequence of GST-CjWRKY1 (A0ZT25 entry or part of it): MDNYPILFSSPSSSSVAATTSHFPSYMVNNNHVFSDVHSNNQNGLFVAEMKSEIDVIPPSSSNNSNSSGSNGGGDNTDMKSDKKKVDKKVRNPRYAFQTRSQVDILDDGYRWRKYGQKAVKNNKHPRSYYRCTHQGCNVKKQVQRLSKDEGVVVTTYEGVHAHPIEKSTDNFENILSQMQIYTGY

B1: 3x W-box probe (W2 of CYP80B2 promoter) (dsDNA)
DNA 1: CTGCTGACTAGCTGACTAGCTGACTAGATGG
DNA 2: CCATCTAGTCAGCTAGTCAGCTAGTCAGCAG
Does B1 bind?
Result: binds
